Tests used:
Test in all cases: stopped-flow fluorescence anisotropy
Settings in all cases: T17 carries SIMA; Kd: 5 mM Tricine-KOH pH 8.0, 100 mM KCl, 3.4 mM MgCl2, 0.1 mM each dNTP, 0.01% Tween 20, 20 nM hairpin, 55 C (SYTO 13 1/5000 listed in the shared buffer)
[1] = molecular target: Taq pol D578H-M747Q D578H;M747Q (UniProt P19821)
Taq pol D578K D578K = Taq pol D578K D578K (UniProt P19821)
Taq pol D578N D578N = Taq pol D578N D578N (UniProt P19821)
[2] = molecular target: Taq pol D578N-V783I D578N;V783I (UniProt P19821)
[3] = molecular target: Taq pol D578Q-D732N D578Q;D732N (UniProt P19821)
[4] = molecular target: Taq pol D578S-R728Q-M747Q D578S;R728Q;M747Q (UniProt P19821)
[5] = molecular target: Taq pol D578S-R728Q-M747V D578S;R728Q;M747V (UniProt P19821)
Taq pol D578W D578W = Taq pol D578W D578W (UniProt P19821)
Taq pol D732N D732N = Taq pol D732N D732N (UniProt P19821)
Taq pol E507D E507D = Taq pol E507D E507D (UniProt P19821)
Taq pol E507K E507K = Taq pol E507K E507K (UniProt P19821)
[6] = molecular target: Taq pol E507K-A570G-M747Q E507K;A570G;M747Q (UniProt P19821)
[7] = molecular target: Taq pol E507K-A570T-M747Q E507K;A570T;M747Q (UniProt P19821)
[8] = molecular target: Taq pol E507K-D578E E507K;D578E (UniProt P19821)
[9] = molecular target: Taq pol E507K-D732N E507K;D732N (UniProt P19821)
[10] = molecular target: Taq pol E507K-R536K-R660V E507K;R536K;R660V (UniProt P19821)
Taq pol E507Q E507Q = Taq pol E507Q E507Q (UniProt P19821)
[11] = molecular target: Taq pol E507Q-D578S-I614M E507Q;D578S;I614M (UniProt P19821)
[12] = molecular target: Taq pol E507Q-D578S-R728Q E507Q;D578S;R728Q (UniProt P19821)
[13] = molecular target: Taq pol E507Q-S515N-D578S E507Q;S515N;D578S (UniProt P19821)
[14] = molecular target: Taq pol E507R-R573K-E708Q E507R;R573K;E708Q (UniProt P19821)
Taq pol E626K E626K = Taq pol E626K E626K (UniProt P19821)
Taq pol E708D E708D = Taq pol E708D E708D (UniProt P19821)
Taq pol E708L E708L = Taq pol E708L E708L (UniProt P19821)
[15] = molecular target: Taq pol E708Q-D732N E708Q;D732N (UniProt P19821)
[16] = molecular target: Taq pol E742K-A743R E742K;A743R (UniProt P19821)
Taq pol F667A F667A = Taq pol F667A F667A (UniProt P19821)
[17] = molecular target: Taq pol F667I-R728N-M747S F667I;R728N;M747S (UniProt P19821)
Taq pol F667M F667M = Taq pol F667M F667M (UniProt P19821)
Taq pol F667Y F667Y = Taq pol F667Y F667Y (UniProt P19821)
Taq pol H639A H639A = Taq pol H639A H639A (UniProt P19821)
Taq pol H639F H639F = Taq pol H639F H639F (UniProt P19821)
Taq pol H639Y H639Y = Taq pol H639Y H639Y (UniProt P19821)
Taq pol I707L I707L = Taq pol I707L I707L (UniProt P19821)
Taq pol M747D M747D = Taq pol M747D M747D (UniProt P19821)
Taq pol M747E M747E = Taq pol M747E M747E (UniProt P19821)
Taq pol M747Q M747Q = Taq pol M747Q M747Q (UniProt P19821)
[18] = molecular target: Taq pol R573K-D578N R573K;D578N (UniProt P19821)
Taq pol R660S R660S = Taq pol R660S R660S (UniProt P19821)
Taq pol R660V R660V = Taq pol R660V R660V (UniProt P19821)
Taq pol S515D S515D = Taq pol S515D S515D (UniProt P19821)
[19] = molecular target: Taq pol S515D-K540M S515D;K540M (UniProt P19821)
Taq pol S515F S515F = Taq pol S515F S515F (UniProt P19821)
Taq pol S515N S515N = Taq pol S515N S515N (UniProt P19821)
[20] = molecular target: Taq pol S515N-M747S S515N;M747S (UniProt P19821)
[21] = molecular target: Taq pol V586N-M747T V586N;M747T (UniProt P19821)
Taq pol WT = Taq pol WT (UniProt P19821)

Sequence: GCTATGCGTGAGCGCTTTTGCGCTCACGCATAGC [H-Kd hairpin]
- Kd [1]: 3.29 nM
- Kd (Taq pol D578K D578K): 4.2 nM
- Kd (Taq pol D578N D578N): 4.26 nM
- Kd [2]: 2.19 nM
- Kd [3]: 0.8 nM
- Kd [4]: 10.3 nM
- Kd [5]: 13.8 nM
- Kd (Taq pol D578W D578W): 4.99 nM
- Kd (Taq pol D732N D732N): 2.6 nM
- Kd (Taq pol E507D E507D): 21.4 nM
- Kd (Taq pol E507K E507K): 3.38 nM
- Kd [6]: 5.15 nM
- Kd [7]: 1.53 nM
- Kd [8]: 1.07 nM
- Kd [9]: 1.69 nM
- Kd [10]: 0.79 nM
- Kd (Taq pol E507Q E507Q): 4.78 nM
- Kd [11]: 1.17 nM
- Kd [12]: 6.29 nM
- Kd [13]: 2.91 nM
- Kd [14]: 0.96 nM
- Kd (Taq pol E626K E626K): 5.74 nM
- Kd (Taq pol E708D E708D): 4.51 nM
- Kd (Taq pol E708L E708L): 6.82 nM
- Kd [15]: 4.33 nM
- Kd [16]: 0.51 nM
- Kd (Taq pol F667A F667A): 11.1 nM
- Kd [17]: 14.4 nM
- Kd (Taq pol F667M F667M): 8.79 nM
- Kd (Taq pol F667Y F667Y): 11.7 nM
- Kd (Taq pol H639A H639A): 8.14 nM
- Kd (Taq pol H639F H639F): 6.55 nM
- Kd (Taq pol H639Y H639Y): 7.46 nM
- Kd (Taq pol I707L I707L): 8.54 nM
- Kd (Taq pol M747D M747D): 29.6 nM
- Kd (Taq pol M747E M747E): 25.5 nM
- Kd (Taq pol M747Q M747Q): 4.41 nM
- Kd [18]: 4.33 nM
- Kd (Taq pol R660S R660S): 10.6 nM
- Kd (Taq pol R660V R660V): 6.21 nM
- Kd (Taq pol S515D S515D): 80.7 nM
- Kd [19]: > 200 nM
- Kd (Taq pol S515F S515F): 211 nM
- Kd (Taq pol S515N S515N): 6.71 nM
- Kd [20]: 1.93 nM
- Kd [21]: 14.1 nM
- Kd (Taq pol WT): 6.19 nM

Reference: article PMC11666352
